Experimental data taken from article PMC7382501.

System: FasR wild-type (FasRwt) (Mycobacterium tuberculosis H37Rv)
Experiment: EMSA

PfasMT promoter fragment (398 bp) was tested, and the Kd was 83 nM.
